The target in this assay is Exportin-1-Ran-GTP complex (human, UniProt O14980 1-1071; P62826 1-216, Q69L). Kind of assay: AUC; sedimentation velocity with Ran-GTP present; proteins incubated together at equimolar concentrations at 20 °C for 30 min in GF1 buffer (20 mM Tris-Cl pH 7.5, 100 mM NaCl, 5 mM MgOAc, 2 mM DTT); 40,000 rpm, 280 nm, c(s) analysis. The conditions noted are these: both partners purified.

B1: 6His-DDX3X(1-580) (domain or fragment)
chain: MSHVAVENALGLDQQFAGLDLNSSDNQSGGSTASKGRYIPPHLRNREATKGFYDKDSSGWSSSKDKDAYSSFGSRSDSRGKSSFFSDRGSGSRGRFDDRGRSDYDGIGSRGDRSGFGKFERGGNSRWCDKSDEDDWSKPLPPSERLEQELFSGGNTGINFEKYDDIPVEATGNNCPPHIESFSDVEMGEIIMGNIELTRYTRPTPVQKHAIPIIKEKRDLMACAQTGSGKTAAFLLPILSQIYSDGPGEALRAMKENGRYGRRKQYPISLVLAPTRELAVQIYEEARKFSYRSRVRPCVVYGGADIGQQIRDLERGCHLLVATPGRLVDMMERGKIGLDFCKYLVLDEADRMLDMGFEPQIRRIVEQDTMPPKGVRHTMMFSATFPKEIQMLARDFLDEYIFLAVGRVGSTSENITQKVVWVEESDKRSFLLDLLNATGKDSLTLVFVETKKGADSLEDFLYHEGYACTSIHGDRSQRDREEALHQFRSGKSPILVATAVAARGLDISNVKHVINFDLPSDIEEYVHRIGRTGRVGNLGLATSFFNERNINITKDLLDLLVEAKQEVPSWLENMAYEHHY
notes: DEAD-box helicase 3, X-linked (DDX3X), human, residues 1-580 of the 662-residue protein; Cloned in pCOLD-IV with an N-terminal 6His tag; no removal of the tag is described; also called wild-type DDX3X(1‒580); DEAD-box helicase 3, X-linked; source: E. coli BL21(DE3), purified (Ni-NTA, Superdex 200 SEC)
Take B1: the binding result was “binds”.

B2: DDX3X(1-168) (domain or fragment)
chain: MSHVAVENALGLDQQFAGLDLNSSDNQSGGSTASKGRYIPPHLRNREATKGFYDKDSSGWSSSKDKDAYSSFGSRSDSRGKSSFFSDRGSGSRGRFDDRGRSDYDGIGSRGDRSGFGKFERGGNSRWCDKSDEDDWSKPLPPSERLEQELFSGGNTGINFEKYDDIPV
notes: DEAD-box helicase 3, X-linked (DDX3X), human, residues 1-168; The purification section names only the 1-580 constructs; the expression and purification of the 1-168 fragment are not described on their own; also called DDX3X(1–168) fragment; source: purified recombinant; truncations were cloned in pCOLD-IV for bacterial expression
In the case of B2, the binding result was “binds”.
